Laboratory results from PMC12207370, “Macrocyclic Peptide Probes for Immunomodulatory Protein CD59: Potent Modulators of Bacterial Toxin Activity and Antibody‐Dependent Cytotoxicity” (Angewandte Chemie (International Ed. in English), 2025).

Target: T1, biotinylated CD59 (Homo sapiens, UniProt P13987)
T1 construct: Recombinant soluble human CD59 with an additional C-terminal cysteine residue
T1 sequence (P13987 26-102 limits assumed): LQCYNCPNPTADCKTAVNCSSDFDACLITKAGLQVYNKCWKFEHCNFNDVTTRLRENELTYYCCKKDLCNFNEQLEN
Assay: mRNA-display cyclic peptide screen against CD59-biotin, NGS abundance after 6th selection round
Conditions: for Percentage Seq I: counts normalised by total counts of sample Seq I; for Percentage Seq I / Percentage Seq II: percentage of the pool; for Percentage Seq I / Percentage Seq II / Percentage Average / Percentage of the pool, averaged across the two sequencing samples / Percentage of the pool, Seq I / Percentage of the pool, Seq II: sheet R6; for Percentage Seq II: counts normalised by total counts of sample Seq II; for Percentage Average: percentage of the pool averaged across the two sequencing samples; for Counts Seq I / Counts Seq II: raw NGS counts of peptide sequence; for Counts Seq I: sequencing sample Seq I; for Counts Seq I / Counts Seq II / Counts (raw counts for peptide sequence), Seq I / Counts (raw counts for peptide sequence), Seq II: sheet R6 (6th selection round); for Counts Seq II: sequencing sample Seq II; for Counts (raw counts for peptide sequence), Seq I: NGS sample Seq I; for Counts (raw counts for peptide sequence), Seq II: NGS sample Seq II; for Percentage of the pool, averaged across the two sequencing samples: average of Seq I and Seq II; for Percentage of the pool, Seq I: counts normalised by total counts of NGS sample Seq I; for Percentage of the pool, Seq II: counts normalised by total counts of NGS sample Seq II
Excerpt: To discover novel non‐protein CD59 ligands, we screened a library of 10^12 cyclic peptides against CD59 using mRNA‐display (Figure 2a).^[ [23], [24], [25], [26], [27], [28], [29] ^] Briefly, an mRNA library was designed in which the start codon was reprogrammed from Met to N‐chloroacetyl‐D‐Tyr (ClAc‐D‐Tyr), followed by 10–12 randomly encoded natural amino acids, a Cys residue, a (GlySer)3 linker, and a stop codon. […] The total library diversity was 1.51 × 10^13 molecules, comprising 5.02 × 10^12 molecules of each macrocycle size, covering a subset of the maximum theoretical diversity of this library design. Following in vitro translation, ClAc‐D‐Tyr spontaneously reacts with either the C‐terminal Cys or a Cys in the random region, yielding macrocyclic thioether peptides. Hits from the library were identified through iterative enrichment and amplification against biotinylated CD59, then immobilized on streptavidin beads. Fifteen hit sequences (CP‐01 to CP‐15), enriched with abundance >1% relative to the total pool of recovered binders after the 6th round of selection, were synthesized by solid phase peptide synthesis (SPPS), without the (Gly‐Ser)3 linker.
Figure 2 Discovery of macrocyclic peptide ligands with nanomolar CD59 affinity using mRNA display. a) The selection process. PCR = polymerase chain reaction, SPPS = solid phase peptide synthesis. b) Table showing details of the peptides with nanomolar affinity for CD59 as well as the binding affinity of the lead inhibitor of CD59, rILYd4. K D values are presented as the average of three technical replicates ± SEM. Structures of all peptides and SPR sensograms are presented in Figures S1 and S2. *indicates the presented sequences are the variable regions of these cyclic peptides; each is flanked by an N‐terminal Ac‐D‐Tyr cyclized to a C‐terminal Cys. R6 abundance (%) is defined as (the given number of NGS reads for a given sequence/the total number of reads of unique sequences observed in NGS)*100 following the 6th selection round. c) Representative sensogram of the interaction between CP‐06 with immobilized CD59 by SPR analysis. Inset showing the equilibrium binding curve of CP‐06 to CD‐59. Below in the box are the association and dissociation rate constants of CP‐06. Concentrations are plotted in descending order from 800‐3.1 nM in line with their position on the legend. […] (nM)'; the box with Kon/Koff has no label of its own / ILYd4: the label may be cut off at the left edge (possibly 'rILYd4') / CP-02, KD: 15.3 ± 0.2, small print, 3 or 8 uncertain / CP-03, KD: 23.4 ± 0.7, small print / CP-06, KD: 11.3 ± 0.0, small print, 3 or 8 uncertain / CP-13, KD: 10.8 ± 0.7, small print, 8 or 6 uncertain / ILYd4, KD: 48.3 ± 1.1, small print, 8 and 3 uncertain
The mRNA-display cyclic peptide screen was performed against CD59-biotin by T.E.M: DNA templates for transcription were generated by PCR in a similar manner to that previously described.^2 RNA oligonucleotides were transcribed from the DNA templates using T7 RNA polymerase and purified by phenol/chloroform extraction followed by ethanol precipitation. Oligonucleotide concentrations were determined spectroscopically by absorbance at 260 nm. In the first selection round a 1:1:1 molar ratio of NNK10/NNK11/NNK12 was used. The procedure for selection rounds 2-6 is described below; round 1 was conducted at twice the scale.
RNA encoding for the peptide library ligated to a puromycin-modified oligonucleotide was […] (final [RNA] = 2.5 µM) using a customised PURE express kit (lacking release factor 1 and methionine, supplemented with […] initiator tRNA acylated with N-chloroacetyl-d-tyrosine prepared as previously described)^3 in a final volume of 5.6 µL for 1 hour at 37 °C.
This mixture was incubated at 42 °C for 1 hour before being diluted to 500 µL with PBS (10 mM Na-PO4 pH 7.4, 2.7 mM KCl, 137 mM NaCl) and 0.5 µL taken for subsequent use in qPCR. […]

| Sequence | Percentage Seq I [%] | Percentage Seq II [%] | Percentage Average [%] | Counts Seq I | Counts Seq II | Counts (raw counts for peptide sequence), Seq I | Counts (raw counts for peptide sequence), Seq II | Percentage of the pool, averaged across the two sequencing samples [%] | Percentage of the pool, Seq I [%] | Percentage of the pool, Seq II [%] |
| --- | --- | --- | --- | --- | --- | --- | --- | --- | --- | --- |
| CYGGRTFIYACS | 0.019 | 0.021 | 0.020 | 83 | 9 |  |  |  |  |  |
| CYGGRTFIYARS | 0.027 | 0.016 | 0.021 | 117 | 7 |  |  |  |  |  |
| CYGGRTFIYAWL |  |  |  |  |  | 35 | 8 | 0.013 | 0.008 | 0.019 |
| CYGGRTFIYAWP | 0.060 | 0.072 | 0.066 | 263 | 31 |  |  |  |  |  |
| CYGGRTFIYAWS | 8.492 | 8.097 | 8.295 | 37156 | 3489 |  |  |  |  |  |
| CYGGRTFIYAWT | 0.043 | 0.035 | 0.039 | 190 | 15 |  |  |  |  |  |
| CYGGRTFIYEWS | 0.037 | 0.042 | 0.040 | 164 | 18 |  |  |  |  |  |
| CYGGRTFIYSWS |  |  |  |  |  | 46 | 8 | 0.015 | 0.011 | 0.019 |
| CYGGRTFIYTWS |  |  |  |  |  | 74 | 4 | 0.013 | 0.017 | 0.009 |
| CYGGRTFIYVWS | 0.038 | 0.023 | 0.031 | 168 | 10 |  |  |  |  |  |
| CYGGRTFTYAWS | 0.241 | 0.306 | 0.274 | 1056 | 132 |  |  |  |  |  |
| CYGGRTFVYAWS | 0.103 | 0.104 | 0.104 | 450 | 45 |  |  |  |  |  |
| CYGGRTLIYAWS | 0.028 | 0.019 | 0.023 | 121 | 8 |  |  |  |  |  |
| CYGGRTSIYAWS | 0.032 | 0.023 | 0.028 | 142 | 10 |  |  |  |  |  |
| CYGGRTYIYAWS | 0.018 | 0.019 | 0.018 | 77 | 8 |  |  |  |  |  |
| CYGNSHAS |  |  |  |  |  | 36 | 8 | 0.013 | 0.008 | 0.019 |
| CYGNSHASWG | 0.483 | 0.469 | 0.476 | 2115 | 202 |  |  |  |  |  |

| Sequence | Percentage Seq I [%] | Percentage Seq II [%] | Percentage Average [%] | Counts Seq I | Counts Seq II | Counts (raw counts for peptide sequence), Seq I | Counts (raw counts for peptide sequence), Seq II | Percentage of the pool, averaged across the two sequencing samples [%] | Percentage of the pool, Seq I [%] | Percentage of the pool, Seq II [%] |
| --- | --- | --- | --- | --- | --- | --- | --- | --- | --- | --- |
| CYGSRTFIYAWS | 0.026 | 0.019 | 0.022 | 114 | 8 |  |  |  |  |  |
| CYSLRLGPETV |  |  |  |  |  | 37 | 6 | 0.011 | 0.00846 | 0.014 |
| CYTAGSASWSRG | 0.726 | 0.680 | 0.703 | 3176 | 293 |  |  |  |  |  |
| CYTYRSLDPQSV |  |  |  |  |  | 42 | 9 | 0.015 | 0.010 | 0.021 |
| DCWVRGSRNYT |  |  |  |  |  | 62 | 6 | 0.014 | 0.014 | 0.014 |
| DPICTRYNDPR |  |  |  |  |  | 46 | 5 | 0.011 | 0.011 | 0.012 |
| DPWCTPFSNVT | 0.186 | 0.209 | 0.198 | 815 | 90 |  |  |  |  |  |
| DPYCPFFPEFR |  |  |  |  |  | 52 | 5 | 0.012 | 0.012 | 0.012 |
| DSRNQCHTWKT |  |  |  |  |  | 87 | 6 | 0.017 | 0.020 | 0.014 |
| DYNRIVWGRGNAAAAAAARTGGG |  |  |  |  |  | 89 | 6 | 0.017 | 0.020 | 0.014 |
| EARGTKSFAYY | 0.124 | 0.100 | 0.112 | 544 | 43 |  |  |  |  |  |
| EIRGALNWVRG | 0.125 | 0.146 | 0.136 | 549 | 63 |  |  |  |  |  |
| FARGDLYSVLG |  |  |  |  |  | 71 | 5 | 0.014 | 0.016 | 0.012 |
| FARGDRNHQFY |  |  |  |  |  | 63 | 5 | 0.013 | 0.014 | 0.012 |
| FARGDWNHQFY |  |  |  |  |  | 120 | 3 | 0.017 | 0.027 | 0.007 |
| FATGNRDHTRG | 0.027 | 0.014 | 0.020 | 117 | 6 |  |  |  |  |  |
